9 molecules from patent publication US20130230540A1 (DOMANTIS, published 2013) can be followed below.

The target of assay [1] is T1, recombinant human CD28/Fc Chimera (R&D Systems) (human, UniProt P10747 19-152).
T1 construct: Bought reagent (R&D Systems, Abingdon, UK); not shown: Fc portion of the bought chimera
As to the kind of experiment: SPR (BIAcore), CM5 chip coated with 12500 RU CD28-Fc; dAb injected at 14.7 µM. An excerpt:
(§1) All 58 clones were expressed and purified and tested on the BIAcore against a CM5 chip coated with 12500 RU (response units) of CD28-Fc. […] The protein concentrations used for BIAcore analysis were: […]

Assay [2] addresses T1, recombinant human CD28/Fc Chimera (R&D …). Kind of assay: SPR (BIAcore), CM5 chip coated with 12500 RU CD28-Fc; dAb injected at 68.1 µM.
Source text: as §1
(Surface plasmon resonance follows binding to a sensor surface in real time, without labels.)

Assay [3] shares this target. As to the kind of experiment: SPR (BIAcore), CM5 chip coated with 12500 RU CD28-Fc; dAb injected at 16.6 µM.
Source text: as §1

For assay [4] the target is unchanged. As to the kind of experiment: SPR (BIAcore), CM5 chip coated with 12500 RU of CD28-Fc, purified dAb, concentration not given.
Source text: as §1

The target is the same in assay [5]. Kind of assay: SPR (BIAcore), CM5 chip coated with 12500 RU CD28-Fc; dAb injected at 42.3 µM.
Source text: as §1

Assay [6] shares this target. Kind of assay: SPR (BIAcore), CM5 chip coated with 12500 RU CD28-Fc; dAb injected at 19.4 µM.
Source text: as §1

The target is the same in assay [7]. Kind of assay: SPR (BIAcore), CM5 chip coated with 12500 RU CD28-Fc; dAb injected at 13.8 µM.
Source text: as §1

For assay [8] the target is unchanged. Kind of assay: SPR (BIAcore), CM5 chip coated with 12500 RU CD28-Fc; dAb injected at 57.5 µM.
Source text: as §1

B1: DOM21-27 (other)
VL: DIQMTQSPSSLSASVGDRVTITCRASQSIGTGLRWYQQKPGKAPMLLIYRASILQSGVPSRFSGSGSGTDFTLTISSLQPEDFATYYCQQTTLQPFTFSQGTKVEIKR
notes: Human Vkappa antibody single variable domain (dAb), expressed from pDOM5 and purified
Consider B1, for which the binding result in assay [1] is recorded as “binds”.

B2: DOM21-6 (other)
VH: EVQLLESGGGLVQPGGSLRLSCAASGFTFENYGMAWVRQAPGKGLEWVSNIGRAGSVTYYADSVKGRFTISRDNSKNTLYLQMNSLRAEDTAVYYCAKVQSWRTFDYWGQGTLVTVSS
notes: Human VH antibody single variable domain (dAb), expressed from pDOM5 and purified
In the case of B2, in assay [2], the binding result is on record as “binds”.

B3: DOM21-28 (other)
VL: DIQMTQSPSSLSASVGDRVTITCRASQSISHSLVWYQQKPGKAPKLLIYWASLLQSGVPSRFSGSGSGTDFTLTISSLQPEDFATYYCQQGMTTPFTFGQGTKVEIKR
notes: as for B1
On to B3, for which the binding result in assay [3] is on record as “binds”.

B4: DOM21-38 (other)
VH: EVQLLESGGGLVQPGGSLRLSCAASGFTFILYDMQWVRQAPGKGLEWVSRISANGHDTYYADSVKGRFTISRDNSKNTLYLQMNSLRAEDTAVYYCAKGPHYLFDYWGQGTLVTVSS
notes: as for B2
Regarding B4, in assay [4], the binding result is listed as “binds”.

B5: DOM21-44 (other)
VH: EVQLLESGGGLVQPGGSLRLSCAASGFTFARYTMVWVRQAPGKGLEWVSAIHFDGRTTYYADSVKGRFTISRDNSKNTLYLQMNSLRAEDTAVYYCAKNEWASLKHFDYWGQGTLVTVSS
notes: as for B2
For the molecule B5, the binding result in assay [4] is recorded as “binds”.

B6: DOM21-4 (other)
VH: EVQLLESGGGLVQPGGSLRLSCAASGFTFSRYHMAWVRQAPGKGLEWVSVIDSLGLQTYYADSVKGRFTISRDNSKNTLYLQMNSLRAEDTAVYYCAEYGGAFDYWGQGTLVTVSS
notes: Human VH antibody single variable domain (dAb), DP47/JH4b framework, expressed from pDOM5 and purified
As to B6, in assay [5], the binding result is reported as “binds”.

B7: DOM21-22 (other)
VH: EVQLLESGGGLVQPGGSLRLSCAASGFTFELYQMGWVRQAPGKGLEWVSTIMPSGNLTYYADSVKGRFTISRDNSKNTLYLQMNSLRAEDTAVYYCAKMWSLNLGFHAAFDYWGQGTLVTVSS
notes: as for B2
For the molecule B7, the binding result in assay [6] is on record as “binds”.

B8: DOM21-18 (other)
VL: DIQMTQSPSSLSASVGDRVTITCRASQYIGTSLNWYQQKPGKAPKLLTYQASLLQSGVPSRFSGSGSGTDFTLTISSLQPEDFATYYCQQLALRPMTFGQGTKVEIKR
notes: Human Vkappa antibody single variable domain (dAb), DPK9/Jk1 framework, expressed from pDOM5 and purified
B8: in assay [7], the binding result was “binds”.

B9: DOM21-20 (other)
VH: EVQLLESGGGLVQPGGSLRLSCAASGFTFPAYSMIWVRQAPGKGLEWVSTISPLGYSTYYADSVKGRFTISRDNSKNTLYLQMNSLRAEDTAVYYCAEQTAYLNRATEHFDYWGQGTLVTVSS
notes: as for B2
On to B9, for which, in assay [8], the binding result is listed as “binds”.
